Results taken from patent US20250277030A1 (Zymeworks, published 2025).

Assays:
[1] = molecular target: T1, human sodium-dependent phosphate transporter 2B (NaPi2b) (human, UniProt O95436 1-690); test: flow cytometry, IGROV-1 cells (endogenous NaPi2b)
T1 construct: UniProt ID is given as 095436 [sic]; also called hNaPi2b; Hu NaPi2b
T1 sequence: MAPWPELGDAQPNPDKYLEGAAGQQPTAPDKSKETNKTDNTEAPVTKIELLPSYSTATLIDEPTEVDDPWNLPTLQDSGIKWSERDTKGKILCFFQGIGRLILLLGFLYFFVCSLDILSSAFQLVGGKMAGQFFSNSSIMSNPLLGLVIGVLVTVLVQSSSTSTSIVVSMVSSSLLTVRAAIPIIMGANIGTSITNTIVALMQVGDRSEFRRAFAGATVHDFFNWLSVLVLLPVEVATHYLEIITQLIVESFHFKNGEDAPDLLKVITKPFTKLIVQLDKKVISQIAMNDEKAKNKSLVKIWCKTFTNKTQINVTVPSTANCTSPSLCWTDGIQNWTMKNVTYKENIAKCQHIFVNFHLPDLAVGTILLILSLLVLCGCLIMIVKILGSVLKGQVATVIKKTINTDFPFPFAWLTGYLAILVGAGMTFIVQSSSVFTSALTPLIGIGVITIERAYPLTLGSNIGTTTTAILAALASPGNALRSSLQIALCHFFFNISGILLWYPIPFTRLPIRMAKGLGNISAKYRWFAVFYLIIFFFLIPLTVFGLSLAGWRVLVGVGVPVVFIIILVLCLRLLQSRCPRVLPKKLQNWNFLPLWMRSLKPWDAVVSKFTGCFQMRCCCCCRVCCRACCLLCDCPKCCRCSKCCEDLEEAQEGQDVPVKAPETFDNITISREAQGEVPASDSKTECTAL
Procedure: (§1) Briefly, HEK293-6e cells were transfected for ˜24 hours to transiently express human NaPi2b, cynomolgus or mouse NaPi2b, at 1 μg of DNA per 1 million cells. Following transfection, 50,000 cells per well were seeded in V-bottom 96-well plates and incubated with 200 nM of primary antibody for 18-24 hours at 4° C. to prevent internalization. Post-incubation, cells were washed and stained with anti-Human IgG Fc AF647 conjugate (Jackson Immuno Research Labs, West Grove, PA, Cat. No. 109-605-098, Lot. No. 124868) at 4° C. for 1 hour. Following staining and washing, fluorescence was detected by flow cytometry on BD LSRFortessa™ Cell Analyzer (BD Biosciences, Franklin Lake, NJ) with 10,000 minimum events collected per well. The AF647/APC-A GeoMean (fluorescence signal geometric mean, proportional to anti-Human AF647 binding) was calculated for the live singlet cell population for each primary antibody using FlowJo™ v8 software (BD Biosciences, Franklin Lake, NJ). The Bmax and Kd of each primary antibody were calculated using GraphPad Prism Version 9 (GraphPad Software, San Diego, CA)
(§2) The ability of ADCs to bind to cells expressing NaPi2b was assessed. […] Binding to endogenous high NaPi2b-expressing cell lines IGROV-1 and HCC-78 was assessed by flow cytometry according to methods described in Example 5.

[2] = molecular target: T1, human sodium-dependent phosphate …; test: flow cytometry, HCC-78 cells (endogenous NaPi2b); apparent Kd
Procedure: as §1, §2

[3] = molecular target: T1, human sodium-dependent phosphate …; test: flow cytometry, IGROV-1 cells (endogenous NaPi2b); apparent Kd
Procedure: as §1, §2

[4] = molecular target: T1, human sodium-dependent phosphate …; test: flow cytometry, IGROV-1 cells (endogenous NaPi2b), 24 h at 4 °C
Summary of the method: (§3)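 IGROV-1 cells were incubated with test antibody for 24 hours at 4° C to prevent internalization, then stained with anti-human IgG Fc AF647 for 30 min at 4° C. AF647 geometric mean fluorescence of live cells was measured by flow cytometry and plotted per antibody.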

[5] = molecular target: T2, mouse NaPi2b (mouse, UniProt Q9DBP0 1-697); test: flow cytometry, HEK293-6e cells transfected with mouse NaPi2b; apparent Kd
T2 construct: Transiently expressed on HEK293-6e cells; also called Ms NaPi2b
T2 sequence: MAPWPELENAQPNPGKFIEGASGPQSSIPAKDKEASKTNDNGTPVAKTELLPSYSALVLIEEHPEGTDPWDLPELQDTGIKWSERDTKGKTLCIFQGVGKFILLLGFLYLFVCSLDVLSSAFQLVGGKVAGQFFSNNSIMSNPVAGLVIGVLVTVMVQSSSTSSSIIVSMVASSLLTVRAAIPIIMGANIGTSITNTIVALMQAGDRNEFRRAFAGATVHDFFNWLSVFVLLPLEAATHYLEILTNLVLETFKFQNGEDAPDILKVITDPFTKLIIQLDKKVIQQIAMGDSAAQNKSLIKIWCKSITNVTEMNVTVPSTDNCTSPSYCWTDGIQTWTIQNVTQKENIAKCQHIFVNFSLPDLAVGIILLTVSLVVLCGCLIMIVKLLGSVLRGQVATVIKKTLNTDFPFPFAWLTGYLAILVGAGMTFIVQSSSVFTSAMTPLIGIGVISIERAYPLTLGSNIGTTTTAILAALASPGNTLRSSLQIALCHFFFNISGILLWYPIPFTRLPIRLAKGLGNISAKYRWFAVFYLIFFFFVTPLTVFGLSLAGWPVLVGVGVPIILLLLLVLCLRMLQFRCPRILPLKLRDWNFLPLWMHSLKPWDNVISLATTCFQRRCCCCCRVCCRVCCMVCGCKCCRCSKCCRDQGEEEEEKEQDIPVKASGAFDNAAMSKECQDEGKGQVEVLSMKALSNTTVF
Procedure: The binding cross-reactivity of humanized antibody variant v29456 to human, cynomolgus and mouse NaPi2b was assessed by flow cytometry using HEK293-6e transfected cells.
as §1

[6] = molecular target: T1, human sodium-dependent phosphate …; test: flow cytometry, IGROV-1 cells (endogenous NaPi2b), 24 h at 4 °C; apparent Kd
Summary of the method: as §3

B1: v29456 humanized anti-NaPi2b antibody (H1L2) (antibody, human IgG1, kappa)
heavy: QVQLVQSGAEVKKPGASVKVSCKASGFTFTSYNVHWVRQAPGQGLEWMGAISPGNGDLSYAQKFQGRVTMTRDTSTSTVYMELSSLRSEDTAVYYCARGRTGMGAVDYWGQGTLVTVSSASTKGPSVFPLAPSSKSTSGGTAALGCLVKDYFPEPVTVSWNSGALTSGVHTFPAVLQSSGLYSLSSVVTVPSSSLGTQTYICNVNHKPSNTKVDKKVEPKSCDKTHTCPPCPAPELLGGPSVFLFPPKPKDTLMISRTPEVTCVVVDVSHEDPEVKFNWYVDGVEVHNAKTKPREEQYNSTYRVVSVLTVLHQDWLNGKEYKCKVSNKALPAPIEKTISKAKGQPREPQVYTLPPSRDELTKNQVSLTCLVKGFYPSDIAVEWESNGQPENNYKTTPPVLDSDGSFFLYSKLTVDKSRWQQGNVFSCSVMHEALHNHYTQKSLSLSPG
light: DVQMTQSPSSLSASVGDRVTITCRASQDVYSYLNWYQQKPGKAVKLLIYYTSRLQSGVPSRFSGSGSGTDYTLTISSLQPEDFATYYCQQYNIFPWTFGQGTKLEIKRTVAAPSVFIFPPSDEQLKSGTASVVCLLNNFYPREAKVQWKVDNALQSGNSQESVTEQDSKDSTYSLSSTLTLSKADYEKHKVYACEVTHQGLSSPVTKSFNRGEC
[1]
  Bmax (MFI): 78100 MFI
[2]
  Kd: 2.27 nM
[3]
  Kd: 0.65 nM
[4]
  Bmax (MFI): 40900 MFI
[5]
  Kd: 10.6 nM
[6]
  Kd: 1.1 nM
